According to publication PMC12151148 (2024):
No end group written: not given here.

T1: Gαi3⋅GDP (human, UniProt P08754 1-354)
T1 chain: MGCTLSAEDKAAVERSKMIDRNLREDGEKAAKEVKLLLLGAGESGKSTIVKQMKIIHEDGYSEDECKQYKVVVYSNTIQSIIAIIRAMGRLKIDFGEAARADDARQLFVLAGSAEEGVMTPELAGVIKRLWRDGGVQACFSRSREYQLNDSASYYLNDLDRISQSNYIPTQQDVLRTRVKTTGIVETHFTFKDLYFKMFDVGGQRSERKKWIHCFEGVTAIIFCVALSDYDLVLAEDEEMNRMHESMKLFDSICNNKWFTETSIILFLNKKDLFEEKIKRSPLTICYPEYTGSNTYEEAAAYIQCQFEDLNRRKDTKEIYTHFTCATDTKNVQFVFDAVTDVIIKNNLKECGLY

T2: FL-AGS3-4E (mouse, UniProt Q6IR34)
T2 sequence (Q6IR34 whole entry, looked up): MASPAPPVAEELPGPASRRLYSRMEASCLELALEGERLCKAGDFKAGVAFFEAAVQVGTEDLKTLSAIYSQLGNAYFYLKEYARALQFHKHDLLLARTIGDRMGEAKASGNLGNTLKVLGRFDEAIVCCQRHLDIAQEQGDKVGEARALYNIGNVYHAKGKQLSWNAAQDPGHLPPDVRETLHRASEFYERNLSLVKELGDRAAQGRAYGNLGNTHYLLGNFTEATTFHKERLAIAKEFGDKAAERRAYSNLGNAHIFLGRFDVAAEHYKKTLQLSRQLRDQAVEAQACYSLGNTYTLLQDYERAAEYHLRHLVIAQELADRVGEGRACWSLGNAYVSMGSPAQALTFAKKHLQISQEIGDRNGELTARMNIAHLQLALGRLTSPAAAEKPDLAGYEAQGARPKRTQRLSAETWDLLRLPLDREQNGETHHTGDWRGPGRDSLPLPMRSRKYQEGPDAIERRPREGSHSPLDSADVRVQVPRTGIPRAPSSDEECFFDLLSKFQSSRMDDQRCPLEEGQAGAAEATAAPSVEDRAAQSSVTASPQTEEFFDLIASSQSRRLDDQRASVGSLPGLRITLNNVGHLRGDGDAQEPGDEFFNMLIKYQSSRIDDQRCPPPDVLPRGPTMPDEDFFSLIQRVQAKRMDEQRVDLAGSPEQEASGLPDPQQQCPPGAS

T3: AGS3-L (−23–405) (mouse)
T3 chain: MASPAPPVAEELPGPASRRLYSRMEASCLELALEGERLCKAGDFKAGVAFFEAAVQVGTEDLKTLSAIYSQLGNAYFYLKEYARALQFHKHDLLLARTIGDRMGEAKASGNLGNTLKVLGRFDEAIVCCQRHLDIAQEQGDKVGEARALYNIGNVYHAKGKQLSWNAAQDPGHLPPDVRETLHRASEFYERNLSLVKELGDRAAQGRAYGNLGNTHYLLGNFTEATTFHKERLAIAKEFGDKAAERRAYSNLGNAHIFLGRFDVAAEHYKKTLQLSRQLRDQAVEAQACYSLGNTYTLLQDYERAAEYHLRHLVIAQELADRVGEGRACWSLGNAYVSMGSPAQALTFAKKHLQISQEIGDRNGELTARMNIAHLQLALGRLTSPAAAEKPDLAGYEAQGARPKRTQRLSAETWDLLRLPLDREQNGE

T4: LGN-TPR (1–409) (mouse)
T4 chain: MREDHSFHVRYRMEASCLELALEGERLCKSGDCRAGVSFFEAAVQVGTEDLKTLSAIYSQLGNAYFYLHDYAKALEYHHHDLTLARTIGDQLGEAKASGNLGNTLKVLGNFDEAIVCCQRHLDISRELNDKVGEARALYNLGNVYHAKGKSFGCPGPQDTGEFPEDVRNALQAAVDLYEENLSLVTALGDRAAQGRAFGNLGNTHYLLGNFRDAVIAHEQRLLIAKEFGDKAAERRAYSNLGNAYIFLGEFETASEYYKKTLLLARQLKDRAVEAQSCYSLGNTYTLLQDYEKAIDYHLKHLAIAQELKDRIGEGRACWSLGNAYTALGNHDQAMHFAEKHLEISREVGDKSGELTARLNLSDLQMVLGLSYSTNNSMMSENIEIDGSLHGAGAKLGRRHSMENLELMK

T5: FL-LGN-4E (mouse, UniProt Q8VDU0)
T5 sequence (Q8VDU0 whole entry, looked up): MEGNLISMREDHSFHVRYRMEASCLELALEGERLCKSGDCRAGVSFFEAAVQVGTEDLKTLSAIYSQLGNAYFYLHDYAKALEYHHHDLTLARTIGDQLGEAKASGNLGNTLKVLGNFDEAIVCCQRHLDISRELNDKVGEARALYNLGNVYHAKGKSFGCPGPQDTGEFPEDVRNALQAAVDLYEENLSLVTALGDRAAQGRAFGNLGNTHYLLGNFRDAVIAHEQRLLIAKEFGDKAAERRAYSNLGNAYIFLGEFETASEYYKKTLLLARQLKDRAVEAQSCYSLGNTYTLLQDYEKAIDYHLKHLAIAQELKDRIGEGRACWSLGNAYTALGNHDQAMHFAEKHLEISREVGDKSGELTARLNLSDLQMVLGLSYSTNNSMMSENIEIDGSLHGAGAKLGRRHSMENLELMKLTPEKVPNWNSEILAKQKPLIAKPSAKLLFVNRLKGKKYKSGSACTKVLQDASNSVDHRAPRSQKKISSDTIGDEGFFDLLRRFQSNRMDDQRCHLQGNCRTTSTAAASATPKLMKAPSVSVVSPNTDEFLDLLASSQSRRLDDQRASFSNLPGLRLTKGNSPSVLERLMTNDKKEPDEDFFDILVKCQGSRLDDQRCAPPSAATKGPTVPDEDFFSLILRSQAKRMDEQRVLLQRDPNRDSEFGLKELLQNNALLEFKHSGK

T6: AGS3 (Homo sapiens, UniProt Q86YR5)
T6 chain: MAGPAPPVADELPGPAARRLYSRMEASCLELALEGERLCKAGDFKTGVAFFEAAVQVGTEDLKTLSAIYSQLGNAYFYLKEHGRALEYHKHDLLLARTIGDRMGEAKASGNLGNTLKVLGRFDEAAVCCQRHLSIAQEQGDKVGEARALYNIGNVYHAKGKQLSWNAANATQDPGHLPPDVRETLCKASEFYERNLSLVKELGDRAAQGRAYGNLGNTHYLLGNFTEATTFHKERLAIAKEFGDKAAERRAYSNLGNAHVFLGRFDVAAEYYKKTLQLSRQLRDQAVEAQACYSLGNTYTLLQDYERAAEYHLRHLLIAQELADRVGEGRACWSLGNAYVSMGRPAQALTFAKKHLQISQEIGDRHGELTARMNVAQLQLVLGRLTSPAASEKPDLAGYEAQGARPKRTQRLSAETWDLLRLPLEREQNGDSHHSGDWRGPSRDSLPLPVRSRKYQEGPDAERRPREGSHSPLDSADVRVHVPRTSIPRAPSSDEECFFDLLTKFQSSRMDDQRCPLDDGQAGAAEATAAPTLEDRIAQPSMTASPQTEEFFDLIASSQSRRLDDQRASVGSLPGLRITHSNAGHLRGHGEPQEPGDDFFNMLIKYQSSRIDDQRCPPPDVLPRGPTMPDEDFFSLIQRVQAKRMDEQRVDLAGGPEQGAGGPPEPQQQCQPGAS

T7: LGN (Homo sapiens, UniProt P81274)
T7 chain: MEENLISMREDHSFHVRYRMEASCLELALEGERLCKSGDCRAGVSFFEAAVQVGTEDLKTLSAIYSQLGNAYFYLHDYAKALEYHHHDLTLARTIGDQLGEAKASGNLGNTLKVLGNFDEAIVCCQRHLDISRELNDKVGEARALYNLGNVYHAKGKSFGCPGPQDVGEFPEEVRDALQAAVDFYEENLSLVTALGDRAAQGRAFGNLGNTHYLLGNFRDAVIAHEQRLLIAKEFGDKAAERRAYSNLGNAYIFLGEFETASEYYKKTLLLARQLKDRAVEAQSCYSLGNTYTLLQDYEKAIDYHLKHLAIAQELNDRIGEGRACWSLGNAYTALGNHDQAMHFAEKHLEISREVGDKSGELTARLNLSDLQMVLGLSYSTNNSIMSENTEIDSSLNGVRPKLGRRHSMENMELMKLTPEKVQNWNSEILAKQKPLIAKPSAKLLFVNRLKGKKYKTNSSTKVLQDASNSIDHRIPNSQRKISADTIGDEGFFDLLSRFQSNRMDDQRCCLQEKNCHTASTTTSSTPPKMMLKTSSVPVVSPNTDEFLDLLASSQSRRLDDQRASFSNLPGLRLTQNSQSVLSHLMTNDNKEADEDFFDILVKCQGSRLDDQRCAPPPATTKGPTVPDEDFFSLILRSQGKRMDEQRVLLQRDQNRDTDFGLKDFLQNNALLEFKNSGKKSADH


Columns and labels:
[1] = biological target: T1, Gαi3⋅GDP; assay: ITC; GDP
[2] = biological target: T1, Gαi3⋅GDP; assay: ITC
[3] = biological target: T2, FL-AGS3-4E; assay: ITC
[4] = biological target: T3, AGS3-L (−23–405); assay: ITC
[5] = biological target: T4, LGN-TPR (1–409); assay: ITC
[6] = biological target: T5, FL-LGN-4E; assay: ITC
[7] = biological target: T6, AGS3
[8] = biological target: T7, LGN

Binder	Kd [1]	Kd [2]	other results
DEDFFSLIQRVQAKRMDEQRVDL (domain or fragment) [AGS3 GL4 motif]	330 nM	320 nM	–
NSFYMGTCQDEPEQLDDWNRIAELQQR (domain or fragment) [NuMA (1886–1912)]	–	–	Kd [3]: 280 nM; Kd [4]: 240 nM; Kd [5]: 630 nM; Kd [6]: 200 nM
LGN-GL1234 (483–650) (domain or fragment) DEGFFDLLRRFQSNRMDDQRCHLQGNCRTTSTAAASATPKLMKAPSVSVVSPNTDEFLDLLASSQSRRLDDQRASFSNLPGLRLTKGNSPSVLERLMTNDKKEPDEDFFDILVKCQGSRLDDQRCAPPSAATKGPTVPDEDFFSLILRSQAKRMDEQRVLLQRDPNRD	260 nM	–	–
WGLWGVQESRRLCCAGHDRCKQALLQIGINMMALPGGRHLDSVTLPGQR	–	–	Kd [7]: 2270 nM; Kd [8]: 3920 nM
WGLWGVQESRRLCCAGHDRCKQALLQIGINMMALPGGRHLDSVTLPGQR (not fully specified; cysteine pairing not given here)	–	–	Kd [7]: 2290 nM; Kd [8]: 2620 nM
DEDFFSLILRSQAKRMDEQRVLL (domain or fragment) [LGN GL4 motif]	200 nM	–	–
TEEFFDLIASSQSRRLDDQRASV (domain or fragment) [AGS3 GL2 motif]	40 nM	36.5 nM	–

Second part, led by results:

Kd [1]	Kd [2]	Binder	other results
260 nM	260 nM	GDEFFNMLIKYQSSRIDDQRCPP (domain or fragment) [AGS3 GL3 motif]	–
330 nM	330 nM	DEGFFDLLRRFQSNRMDDQRCHL (domain or fragment) [LGN GL1 motif]	–
280 nM	–	AGS3-GL1234 (470–631) (domain or fragment) EECFFDLLSKFQSSRMDDQRCPLEEGQAGAAEATAAPSVEDRAAQSSVTASPQTEEFFDLIASSQSRRLDDQRASVGSLPGLRITLNNVGHLRGDGDAQEPGDEFFNMLIKYQSSRIDDQRCPPPDVLPRGPTMPDEDFFSLIQRVQAKRMDEQRVDLAGSP	–
300 nM	300 nM	EECFFDLLSKFQSSRMDDQRCPL (domain or fragment) [AGS3 GL1 motif]	–
40 nM	–	DEDFFDILVKCQGSRLDDQRCAP (domain or fragment) [LGN GL3 motif]	–
40 nM	41.5 nM	TDEFLDLLASSQSRRLDDQRASF (domain or fragment) [LGN GL2 motif]	–
